Source: patent US20260137795A1 (IMMUNOME, published 2026)
Each block holds one binder with its values, some of them ahead of it.

How the values were obtained:
[1] = biological target: T1, Hu/Cy/Rh ROR1 - His (human/cynomolgus/rhesus, UniProt Q01973 30-403, limits assumed); assay: SPR, purified Hu/Cy/Rh ROR1-His
T1 construct: Purified His-tagged protein; also called HUMAN/CYNO/RHESUS ROR-1; not shown: His tag

[2] = biological target: T2, human ROR-1 endogenously expressed on JeKo-1 and MDA-MB-468 cells (human, UniProt Q01973 30-937); assay: cell-based or functional assay
[3] = biological target: T1, Hu/Cy/Rh ROR1 - His; assay: SPR (Carterra), head 'Kinetics (KD)' of the binning table; the sheet prints no unit, the four other KD values of the same head equal the KD (M) of Table 1 on Hu/Cy/Rh ROR1-His
[4] = biological target: T2, human ROR-1 endogenously expressed on …; assay: flow cytometry on MDA-MB-468 cells, titrated antibody detected with a labeled secondary antibody, % Top MFI (cellular binning with Dy650-UC961)
[5] = biological target: T3, Mouse ROR1 - His (mouse, UniProt Q9Z139 30-403, limits assumed); assay: SPR, purified Mouse ROR1-His
T3 construct: Purified His-tagged protein; not shown: His tag
T3 sequence (Q9Z139 30-403 limits assumed): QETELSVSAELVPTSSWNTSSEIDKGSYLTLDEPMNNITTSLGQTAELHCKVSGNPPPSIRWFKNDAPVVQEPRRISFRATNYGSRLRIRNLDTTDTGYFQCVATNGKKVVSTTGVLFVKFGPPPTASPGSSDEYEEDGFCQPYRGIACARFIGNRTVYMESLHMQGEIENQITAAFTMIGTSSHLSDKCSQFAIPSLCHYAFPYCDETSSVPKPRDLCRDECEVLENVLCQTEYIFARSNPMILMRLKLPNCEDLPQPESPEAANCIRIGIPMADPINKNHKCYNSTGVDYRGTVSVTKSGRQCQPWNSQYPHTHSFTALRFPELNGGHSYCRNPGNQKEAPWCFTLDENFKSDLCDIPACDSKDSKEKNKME

[6] = biological target: T2, human ROR-1 endogenously expressed on …; assay: competition on MDA-MB-468 cells by flow cytometry: ATX-P-885 titrated first, then a saturating dose of labeled UC961 (Dy650-UC961) as the competed antibody
[7] = biological target: T2, human ROR-1 endogenously expressed on …; assay: flow cytometry, titration on ROR-1 positive JeKo-1 cells, secondary antibody staining, Net MFI
[8] = biological target: T2, human ROR-1 endogenously expressed on …; assay: flow cytometry on MDA-MB-468 cells, titrated antibody detected with a labeled secondary antibody, % Top MFI (cellular binning with 4A5-PE)
[9] = biological target: T2, human ROR-1 endogenously expressed on …; assay: cell binding saturation assay, flow cytometry on ROR-1 positive cells; one value told for the group
[10] = biological target: T2, human ROR-1 endogenously expressed on …; assay: competition on MDA-MB-468 cells by flow cytometry: ATX-P-875 titrated first, then a saturating dose of labeled 4A5 (4A5-PE) as the competed antibody

Kd [1]: 4.69 nM | koff [1]: 0.00591 s⁻¹ | kon [1]: 1.26e+06 M⁻¹ s⁻¹ | Cellular Internalization, JeKo-1 (%) [2]: 75% | Cellular Internalization, MDA-MB-468(%) [2]: 80%
B1: UC961 (ATX-P-453) (antibody, V domains shown)
VH: QVQLQESGPGLVKPSQTLSLTCTVSGYAFTAYNIHWVRQAPGQGLEWMGSFDPYDGGSSYNQKFKDRLTISKDTSKNQVVLTMTNMDPVDTATYYCARGWYYFDYWGHGTLVTVSS
VL: DIVMTQTPLSLPVTPGEPASISCRASKSISKYLAWYQQKPGQAPRLLIYSGSTLQSGIPPRFSGSGYGTDFTLTINNIESEDAAYYFCQQHDESPYTFGEGTKVEIK

Kd [1]: 10.9 nM | koff [1]: 0.00295 s⁻¹ | kon [1]: 270000 M⁻¹ s⁻¹ | EC50 (read off the curve) [4]: ~3 nM | Kd [5]: 45.3 nM | koff [5]: 0.00132 s⁻¹ | kon [5]: 29200 M⁻¹ s⁻¹ | Cellular Internalization, JeKo-1 (%) [2]: 75% | Cellular Internalization, MDA-MB-468(%) [2]: 89% | IC50 (read off the curve) [6]: ~3 nM | EC50 (read off the curve) [7]: ~0.3 nM | EC50 (read off the curve) [8]: ~2 nM | saturating concentration [9]: 74 nM
B3: ATX-P-885 (antibody, human IgG1, kappa, V domains shown)
VH: QVQLQQWGAGLLKPSETLSLTCAVYGGSFSGYYWSWIRQPPGKGLEWIGEINHSGSTNYNPSLKSRVTISVDTSKNQFSLKLSSVTAADTAVYYCAREGVYEDYWGQGTLVTVSS
VL: EIVLTQSPATLSLSPGERATLSCRASQSVSNYLAWYQQKPGQAPRLLIYDAYNRATGIPARFSGSGSGTDFTLTISSLEPEDFAVYYCQQRSNWPLTFGQGTRLEIKR
notes: human IgG1 heavy chain and kappa light chain

The remaining lines, values behind:

B2: 4A5 (antibody, V domains shown)
VH: EVKLVESGGGLVKPGGSLKLSCAASGFTFSSYAMSWVRQIPEKRLEWVASISRGGTTYYPDSVKGRFTISRDNVRNILYLQMSSLRSEDTAMYYCGRYDYDGYYAMDYWGQGTSVTVSS
VL: DIKMTQSPSSMYASLGERVTITCKASPDINSYLSWFQQKPGKSPKTLIYRANRLVDGVPSRFSGGGSGQDYSLTINSLEYEDMGIYYCLQYDEFPYTFGGGTKLEMK
Kd [3]: 2.81 nM

B4: ATX-P-875 (antibody, human IgG1, kappa, V domains shown)
VH: not shown
VL: DIQMTQSPSSLSASVGDRVTITCRASQSISSYLNWYQQKPGKAPKLLIYAASSLQSGVPSRFSGSGSGTDFTLTISSLQPEDFATYYCQQYDNLPITFGQGTRLEIKR
notes: as for B3
IC50 (read off the curve) [10]: ~0.7 nM | EC50 (read off the curve) [4]: ~0.9 nM | Cellular Internalization, JeKo-1 (%) [2]: 75% | Cellular Internalization, MDA-MB-468(%) [2]: 89% | EC50 (read off the curve) [8]: ~0.6 nM | saturating concentration [9]: 74 nM
